What all share (assay): cell_activity
Settings in all cases: TALEN pair

Data set [1] deals with GmFAD3_T02 TALEN right monomer (synthetic).
Data set [2] has as its system GmFAD3_T03 TALEN right monomer (synthetic).
The test system of data set [3] is GmFAD3_T03 TALEN left monomer (synthetic).
The test system of data set [4] is GmFAD3_T01 TALEN left monomer (synthetic).
The test system of data set [5] is GmFAD3_T01 TALEN right monomer (synthetic).
Data set [6] concerns GmFAD3_T02 TALEN left monomer (synthetic).
Setting [7] is: soybean protoplasts, text p95 gives 2.39.

In turn, “CCTCAATTCTTGTGCC (double strand) [FAD3B T02 right site]” gave an activity in data set [1] (FAD3B off-target) of 8.81 % NHEJ. Turning to “ACAAAATCATGGACAC (double strand) [FAD3A_T03 right]”, in data set [2] (setting [7]), the activity is 4.4 % NHEJ. Consider “TTTGCAGGAGAATTAT (double strand) [FAD3A_T03 left]”, for which, in data set [3] (setting [7]), the activity was 4.4 % NHEJ. Regarding “ATGGTTAAAGACACAAAGCCTTTAGCCTATGCTGCCAATAATGGATACCAACAAAAGGGTTCTTCTTTTGATTTTGATCCTAGCGCTCCTCCACCGTTTAAGATTGCAGAAATCAGAGCTTCAATACCAAAACATTGCTGGGTCAAGAATCCATGGAGATCCCTCAGTTATGTTCTCAGGGATGTGCTTGTAATTGCTGCATTGGTGGCTGCAGCAATTCACTTCGACAACTGGCTTCTCTGGCTAATCTATTGCCCCATTCAAGGCACAATGTTCTGGGCTCTCTTTGTTCTTGGACATGATTGGTAATAATTTTTGTGTTTCTTACTCTTTTTTTTTTTTTTTTGTTTATGATATGAATCTCACACATTGTTCTGTTATGTCATTTCTTCTTCATTTGGCTTTAGACAACTTAAATTTGAGATCTTTATTATGTTTTTGCTTATATGGTAAAGTGATTCTTCATTATTTCATTCTTCATTGATTGAATTGAACAGTGGCCATGGAAGCTTTTCAGATAGCCCTTTGCTGAATAGCCTGGTGGGACACATCTTGCATTCCTCAATTCTTGTGCCATACCATGGATGGTTAGTTCATACTGGCTTTTTTGTTTGTTCATTTGTCATTGAAAAAAAATCTTTTGTTGATTCAATTATTTTTATAGTGTGTTTGGAAGCCCGTTTGAGAAAATAAGAAATCGCATCTGGAATGTGAAAGTTATAACTATTTAGCTTCATCTGTCGTTGCAAGTTCTTTTATTGGTTAAATTTTTATAGCGTGCTAGGAAACCCATTCGAGAAAATAAGAAATCACATCTGGAATGTGAAAGTTATAACTGTTAGCTTCTGAGTAAACGTGGAAAAACCACATTTTGGATTTGGAACCAAATTTTATTTGATAAATGACAACCAAATTGATTTTGATGGATTTTGCAGGAGAATTAGCCACAGAACTCACCATCAAAACCATGGACACATTGAGAAGGATGAGTCATGGGTTCCA (double strand) [FAD3B gene]”, the activity in data set [3] (FAD3B off-target) is 2.39 % NHEJ; in data set [2] (FAD3B off-target), 2.39 % NHEJ; in data set [4] (FAD3B off-target), 1.48 % NHEJ; in data set [5] (FAD3B off-target), 1.48 % NHEJ.

Consider “AGGAAGCTTTTCAGAC (double strand) [FAD3A_T01 right]”, for which, in data set [5] (soybean protoplasts), the activity worked out at 10.2 % NHEJ. “CTGAATAGCCTGGTGG (double strand) [FAD3B T02 left site]”: the activity in data set [6] (FAD3B off-target) was 8.81 % NHEJ. Turning to “ATGGTTCAAGCACAGCCTCTACAACATGTTGGTAATGGTGCAGGGAAAGAAGATCAAGCTTATTTTGATCCAAGTGCTCCACCACCCTTCAAGATTGCAAATATCAGAGCAGCAATTCCAAAACATTGCTGGGAGAAGAACACATTGAGATCTCTGAGTTATGTTCTGAGGGATGTGTTGGTAGTGACTGCATTGGTAGCTGCAGCAATCGGCTTCAATAGCTGGTTCTTCTGGCCACTCTATTGGCCTGCACAAGGCACAATGTTTTGGGCACTTTTTGTTCTTGGACATGATTGGTAACTAATTATTATTACAAATTGTTATGTTATGTTATGTTATGTTGTTGTGCCTTTTTCTCAGTGATGCTTTAGTCATTTCATTTCACTTGGTTATGCATGATTGTTCGTTCATATGTTCTGTCATGGTGAGTTCTAATTTGATTGATGCATGGAACAGTGGTCATGGAAGTTTTTCAAACAGTCCTTTGTTGAACAGCATTGTGGGCCACATCTTGCACTCTTCAATTCTTGTACCATACCATGGATGGTCGGTTCCTTTTAGCAACTTTTCATGTTCACTTTGTCCTTAAATTTTTTTTTATGTTTGTTAAAAAATCTTTGGTCTGATTTAACAACCTAACCATTTTTACAACTCATGGATTTTTTGCAGGAGAATTAGCCACAGGACTCACCATCAGAACCATGGCCATGTTGAGAAGGATGAATCATGGGTTCCG (double strand) [FAD3C gene]”, the activity in data set [3] (FAD3C off-target) worked out at 0.17 % NHEJ; in data set [1] (FAD3C off-target), 0.01 % NHEJ; in data set [2] (FAD3C off-target), 0.17 % NHEJ; in data set [4] (FAD3C off-target) it was 0.04 % NHEJ; in data set [5] (FAD3C off-target), 0.04 % NHEJ; in data set [6] (FAD3C off-target), 0.01 % NHEJ. “TCATTCTTCACATTGT (double strand) [FAD3A_T01 left]” registered an activity in data set [4] (soybean protoplasts) of 10.2 % NHEJ.

In turn, “ACTCAATTCTTGTGCC (double strand) [FAD3A_T02 right]” returned an activity in data set [1] (soybean protoplasts) of 14.5 % NHEJ. In the case of “CTAAATAGCCTGGTGT (double strand) [FAD3A_T02 left]”, in data set [6] (soybean protoplasts), the activity is 14.5 % NHEJ.

The record behind these values is US20190024103.
